The record followed here is patent publication US20080242557A1, “System For Detecting Molecular Interactions” (CGK CO., LTD., priority 2004, published 2008).

The target in one assay is T1, Caspase-3 (Homo sapiens, UniProt P42574).
T1 construct: mRFP (N); expressed in transfected cells; host or cells: HeLa
T1 sequence (P42574 29-277): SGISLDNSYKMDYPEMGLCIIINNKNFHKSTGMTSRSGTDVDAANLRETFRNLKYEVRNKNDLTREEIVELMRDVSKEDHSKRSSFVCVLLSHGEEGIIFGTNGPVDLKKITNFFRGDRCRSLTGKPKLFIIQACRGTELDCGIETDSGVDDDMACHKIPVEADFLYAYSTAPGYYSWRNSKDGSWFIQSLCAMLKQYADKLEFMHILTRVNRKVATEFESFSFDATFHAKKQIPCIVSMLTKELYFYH
In words: Magnetic-field translocation of mRFP-Caspase3 by DEVD-MNPs in HeLa cells. To be noted: EGFP expressing cells as negative control showed no motion. It counts as cell-based. On the procedure:
A DEVD-MNPs complex was obtained by reacting a Streptavidin nanoparticle, caspase-3 inhibitor II (DEVD)-biotin conjugate (CALBIOCHEM) and TATHA2-biotin at 40 C for 1 hr while agitating the reaction mixture. Unbound ligands were removed from the reaction mixture by purifying the complex using a paramagnet. After introducing mRFP-Caspase3 or EGFP expressing plasmid into a HeLa cell (ATCC), the cell was incubated. The DEVD-MNPs were introduced into the cell, and a magnetic field (M.F.) was externally applied to the cell using a paramagnet or electromagnet. The confocal images were captured using a confocal laser microscope (Carl Zeiss) for the live cells while applying magnetic field as well as not applying magnetic field.

For assay [1], the system named is IκBα phosphorylation (IKK). In words: Detection of IκBα phosphorylation: translocation of IκBα-mRFP with anti-phospho-IκBα (Ser32)-MNPs in HeLa cells. The format is cell-based. As to conditions: HeLa cells treated with various chemical compounds and growth factors.

For “DEVD-MNPs: Streptavidin nanoparticle reacted with caspase-3 inhibitor II (DEVD)-biotin conjugate and TATHA2-biotin”, the “localization of cells expressing mRFP-Caspase3 by external magnetic force” value in the assay with Caspase-3 is “only the cells (indicated with red arrows) expressing mRFP-Caspase3 were localized”.

For the substance TNF-α, the “translocation of the IκBα-mRFP fusion protein under the magnetic field (interaction activator screening)” value in assay [1] is given as “observed to translocate the IκBα-mRFP fusion protein”.
